Results taken from IntAct's records for PubMed 26278177.

B1: DNA repair protein complementing XP-C cells (Homo sapiens), Q01831-1 (parent)
chain: MARKRAAGGEPRGRELRSQKSKAKSKARREEEEEDAFEDEKPPKKSLLSKVSQGKRKRGCSHPGGSADGPAKKKVAKVTVKSENLKVIKDEALSDGDDLRDFPSDLKKAHHLKRGATMNEDSNEEEEESENDWEEVEELSEPVLGDVRESTAFSRSLLPVKPVEIEIETPEQAKTRERSEKIKLEFETYLRRAMKRFNKGVHEDTHKVHLLCLLANGFYRNNICSQPDLHAIGLSIIPARFTRVLPRDVDTYYLSNLVKWFIGTFTVNAELSASEQDNLQTTLERRFAIYSARDDEELVHIFLLILRALQLLTRLVLSLQPIPLKSATAKGKKPSKERLTADPGGSSETSSQVLENHTKPKTSKGTKQEETFAKGTCRPSAKGKRNKGGRKKRSKPSSSEEDEGPGDKQEKATQRRPHGRERRVASRVSYKEESGSDEAGSGSDFELSSGEASDPSDEDSEPGPPKQRKAPAPQRTKAGSKSASRTHRGSHRKDPSLPAASSSSSSSKRGKKMCSDGEKAEKRSIAGIDQWLEVFCEQEEKWVCVDCVHGVVGQPLTCYKYATKPMTYVVGIDSDGWVRDVTQRYDPVWMTVTRKCRVDAEWWAETLRPYQSPFMDREKKEDLEFQAKHMDQPLPTAIGLYKNHPLYALKRHLLKYEAIYPETAAILGYCRGEAVYSRDCVHTLHSRDTWLKKARVVRLGEVPYKMVKGFSNRARKARLAEPQLREENDLGLFGYWQTEEYQPPVAVDGKVPRNEFGNVYLFLPSMMPIGCVQLNLPNLHRVARKLDIDCVQAITGFDFHGGYSHPVTDGYIVCEEFKDVLLTAWENEQAVIERKEKEKKEKRALGNWKLLAKGLLIRERLKRRYGPKSEAAAPHTDAGGGLSSDEEEGTSSQAEAARILAASWPQNREDEEKQKLKGGPKKTKREKKAAASHLFPFEQL

Variants of: B1
Settings: with ercc3_human ERCC3, P19447
Chain of ercc3_human ERCC3, P19447 (P19447 whole entry): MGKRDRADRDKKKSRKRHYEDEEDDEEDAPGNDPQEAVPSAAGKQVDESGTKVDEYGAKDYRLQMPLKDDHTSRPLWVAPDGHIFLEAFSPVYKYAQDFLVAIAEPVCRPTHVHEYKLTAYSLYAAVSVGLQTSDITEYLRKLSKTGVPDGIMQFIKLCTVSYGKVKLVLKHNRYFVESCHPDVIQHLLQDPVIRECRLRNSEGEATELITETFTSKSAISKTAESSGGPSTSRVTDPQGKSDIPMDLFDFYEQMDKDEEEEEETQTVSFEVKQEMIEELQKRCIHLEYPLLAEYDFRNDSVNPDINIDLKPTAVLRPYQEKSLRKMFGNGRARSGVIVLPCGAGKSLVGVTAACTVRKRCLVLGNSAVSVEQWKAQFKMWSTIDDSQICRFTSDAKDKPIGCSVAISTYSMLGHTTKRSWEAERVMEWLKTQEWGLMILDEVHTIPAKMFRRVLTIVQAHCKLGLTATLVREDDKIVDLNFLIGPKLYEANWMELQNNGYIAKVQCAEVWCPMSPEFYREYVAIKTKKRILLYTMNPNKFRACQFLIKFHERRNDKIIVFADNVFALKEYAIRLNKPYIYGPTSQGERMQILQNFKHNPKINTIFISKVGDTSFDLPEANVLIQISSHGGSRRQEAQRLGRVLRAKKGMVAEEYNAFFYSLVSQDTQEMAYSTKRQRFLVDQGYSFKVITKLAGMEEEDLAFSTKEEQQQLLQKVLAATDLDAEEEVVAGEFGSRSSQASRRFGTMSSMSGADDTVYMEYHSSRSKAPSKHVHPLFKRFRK

effect of a mutation on the interaction | Variant
decreasing interaction strength | W133A;V136A
decreasing interaction strength | W133A
decreasing interaction strength | V136A

Variants of: B1
Settings: with tf2h1_human GTF2H1, P32780
Chain of tf2h1_human GTF2H1, P32780 (P32780 whole entry): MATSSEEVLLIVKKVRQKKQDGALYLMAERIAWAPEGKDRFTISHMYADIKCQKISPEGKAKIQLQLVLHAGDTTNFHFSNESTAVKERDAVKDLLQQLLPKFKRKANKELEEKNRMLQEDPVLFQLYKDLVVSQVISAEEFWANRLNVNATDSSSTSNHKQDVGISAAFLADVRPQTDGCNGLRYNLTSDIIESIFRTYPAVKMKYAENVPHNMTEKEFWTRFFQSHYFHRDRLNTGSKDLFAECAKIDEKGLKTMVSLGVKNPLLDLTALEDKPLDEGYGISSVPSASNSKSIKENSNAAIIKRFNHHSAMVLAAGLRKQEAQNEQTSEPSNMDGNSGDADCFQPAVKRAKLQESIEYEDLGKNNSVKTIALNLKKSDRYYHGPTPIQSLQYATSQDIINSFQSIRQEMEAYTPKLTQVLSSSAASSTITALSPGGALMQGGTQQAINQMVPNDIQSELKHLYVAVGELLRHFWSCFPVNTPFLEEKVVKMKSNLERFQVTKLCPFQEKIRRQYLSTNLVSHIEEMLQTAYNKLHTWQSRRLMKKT

effect of a mutation on the interaction | Variant
decreasing interaction strength | L139A
decreasing interaction strength | V136A

The next lines start with the variant.

Variant | effect of a mutation on the interaction
E128A | decreasing interaction strength
W133F | decreasing interaction strength
W133A | disrupting interaction strength
